According to the supplement of paper PMC9112550, “Optimization of the antimicrobial peptide Bac7 by deep mutational scanning” (BMC Biology, 2022):

Test system: Escherichia coli TOP10
Test: shrunken log2 fold change of peptide-encoding DNA abundance (4.5 h post-induction vs induction); higher = less antimicrobial activity (less host growth inhibition)
Conditions: time post-induction: 4.5 h; library: site-saturation at positions 5, 18, 19, 20
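Further: peptides expressed intracellularly from a pBAD plasmid library in pooled LB shake-flask culture, induced with 0.3% L-arabinose, DNA abundance read by NGS, three biological replicates, DESeq2 with apeglm shrinkage.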

Sequence	shrunken log2 fold change
RRIRDRPPRLPRPRPRPWCSPRP	-0.348
RRIRDRPPRLPRPRPRPWCTPRP	0.107
RRIRDRPPRLPRPRPRPWETPRP	0.192
RRIRDRPPRLPRPRPRPWFYPRP	-0.0139
RRIRDRPPRLPRPRPRPWGRPRP	0.258
RRIRDRPPRLPRPRPRPWGVPRP	0.0789
RRIRDRPPRLPRPRPRPWHQPRP	-0.0511
RRIRDRPPRLPRPRPRPWIWPRP	0.188
RRIRDRPPRLPRPRPRPWLWPRP	0.0548
RRIRDRPPRLPRPRPRPWMIPRP	-0.124
RRIRDRPPRLPRPRPRPWNNPRP	-0.0248
RRIRDRPPRLPRPRPRPWNYPRP	-0.0121
RRIRDRPPRLPRPRPRPWPPPRP	0.32
RRIRDRPPRLPRPRPRPWPTPRP	0.104
RRIRDRPPRLPRPRPRPWSCPRP	-0.188
RRIRDRPPRLPRPRPRPWSKPRP	-0.203
RRIRDRPPRLPRPRPRPWWAPRP	0.61
RRIRDRPPRLPRPRPRPWYFPRP	-0.327
RRIRDRPPRLPRPRPRPYDNPRP	-0.307
RRIRDRPPRLPRPRPRPYDSPRP	-0.0305
RRIRDRPPRLPRPRPRPYFMPRP	-0.735
RRIRDRPPRLPRPRPRPYGEPRP	-0.31

Sequence	shrunken log2 fold change
RRIRDRPPRLPRPRPRPYHLPRP	-0.0628
RRIRDRPPRLPRPRPRPYIAPRP	-0.652
RRIRDRPPRLPRPRPRPYIFPRP	3.58
RRIRDRPPRLPRPRPRPYKKPRP	0.00426
RRIRDRPPRLPRPRPRPYKTPRP	-0.0411
RRIRDRPPRLPRPRPRPYLRPRP	-0.0137
RRIRDRPPRLPRPRPRPYMDPRP	-0.393
RRIRDRPPRLPRPRPRPYMHPRP	-0.275
RRIRDRPPRLPRPRPRPYMKPRP	-0.152
RRIRDRPPRLPRPRPRPYMPPRP	-0.517
RRIRDRPPRLPRPRPRPYNMPRP	-0.0758
RRIRDRPPRLPRPRPRPYPEPRP	0.0271
RRIRDRPPRLPRPRPRPYPYPRP	-0.0176
RRIRDRPPRLPRPRPRPYQHPRP	-0.221
RRIRDRPPRLPRPRPRPYQMPRP	-0.796
RRIRDRPPRLPRPRPRPYVDPRP	-0.0902
RRIRDRPPRLPRPRPRPYVVPRP	-0.159
RRIRDRPPRLPRPRPRPYYCPRP	0.0391
RRIRDRPPRLPRPRPRPYYEPRP	-0.226
RRIRERPPRLPRPRPRPAAVPRP	0.057
RRIRERPPRLPRPRPRPACCPRP	0.0931
RRIRERPPRLPRPRPRPACIPRP	-0.0281

Sequence	shrunken log2 fold change
RRIRERPPRLPRPRPRPAENPRP	-0.27
RRIRERPPRLPRPRPRPAEPPRP	-0.000777
RRIRERPPRLPRPRPRPAFIPRP	-0.012
RRIRERPPRLPRPRPRPAFVPRP	0.121
RRIRERPPRLPRPRPRPAGAPRP	0.464
RRIRERPPRLPRPRPRPAGGPRP	0.2
RRIRERPPRLPRPRPRPAKAPRP	0.0877
RRIRERPPRLPRPRPRPAKNPRP	-0.0998
RRIRERPPRLPRPRPRPALHPRP	0.247
RRIRERPPRLPRPRPRPALWPRP	0.241
RRIRERPPRLPRPRPRPANNPRP	-0.598
RRIRERPPRLPRPRPRPANWPRP	0.173
RRIRERPPRLPRPRPRPAPRPRP	0.734
RRIRERPPRLPRPRPRPAPYPRP	-0.123
RRIRERPPRLPRPRPRPAQCPRP	-0.0401
RRIRERPPRLPRPRPRPAQHPRP	0.124
RRIRERPPRLPRPRPRPASTPRP	-0.527
RRIRERPPRLPRPRPRPASWPRP	0.0747
RRIRERPPRLPRPRPRPATDPRP	-0.00755
RRIRERPPRLPRPRPRPATQPRP	0.00813
RRIRERPPRLPRPRPRPAWSPRP	0.233
RRIRERPPRLPRPRPRPAWWPRP	0.00222

Sequence	shrunken log2 fold change
RRIRERPPRLPRPRPRPAYAPRP	0.0657
RRIRERPPRLPRPRPRPCAAPRP	-0.244
RRIRERPPRLPRPRPRPCAWPRP	-0.0536
RRIRERPPRLPRPRPRPCDAPRP	-0.171
RRIRERPPRLPRPRPRPCDHPRP	-0.0479
RRIRERPPRLPRPRPRPCFHPRP	-0.327
RRIRERPPRLPRPRPRPCGIPRP	0.00383
RRIRERPPRLPRPRPRPCGLPRP	-0.0273
RRIRERPPRLPRPRPRPCGNPRP	-0.00264
RRIRERPPRLPRPRPRPCHEPRP	-0.0789
RRIRERPPRLPRPRPRPCHGPRP	-0.989
RRIRERPPRLPRPRPRPCIHPRP	-0.229
RRIRERPPRLPRPRPRPCITPRP	-0.395
RRIRERPPRLPRPRPRPCKPPRP	0.0172
RRIRERPPRLPRPRPRPCKSPRP	-0.0225
RRIRERPPRLPRPRPRPCLAPRP	-0.526
RRIRERPPRLPRPRPRPCLWPRP	-0.0179
RRIRERPPRLPRPRPRPCMDPRP	-0.151
RRIRERPPRLPRPRPRPCMTPRP	-0.00173
RRIRERPPRLPRPRPRPCNAPRP	-0.0483
RRIRERPPRLPRPRPRPCNIPRP	-0.0405
RRIRERPPRLPRPRPRPCNRPRP	-0.0134

Sequence	shrunken log2 fold change
RRIRERPPRLPRPRPRPCPCPRP	-0.341
RRIRERPPRLPRPRPRPCPTPRP	-0.204
RRIRERPPRLPRPRPRPCSRPRP	-0.00322
RRIRERPPRLPRPRPRPCSSPRP	0.00543
RRIRERPPRLPRPRPRPCSYPRP	-0.0141
RRIRERPPRLPRPRPRPCTIPRP	-0.487
RRIRERPPRLPRPRPRPCWDPRP	-0.00421
RRIRERPPRLPRPRPRPDAQPRP	0.154
RRIRERPPRLPRPRPRPDCFPRP	0.316
RRIRERPPRLPRPRPRPDCNPRP	-0.395
RRIRERPPRLPRPRPRPDDSPRP	-0.435
RRIRERPPRLPRPRPRPDDTPRP	-0.0925
RRIRERPPRLPRPRPRPDFHPRP	-0.498
RRIRERPPRLPRPRPRPDFIPRP	-0.092
RRIRERPPRLPRPRPRPDFNPRP	-0.175
RRIRERPPRLPRPRPRPDFPPRP	0.00147
RRIRERPPRLPRPRPRPDFWPRP	0.214
RRIRERPPRLPRPRPRPDHAPRP	-0.318
RRIRERPPRLPRPRPRPDKAPRP	-0.0525
RRIRERPPRLPRPRPRPDKTPRP	-0.0128
RRIRERPPRLPRPRPRPDLAPRP	0.27
